The text below walks through data of patent US20210371527A1 (published 2021).

Assay [1] addresses T1, human CD4 on HPB-ALL cells (UniProt P01730 26-458). The experiment in a line: flow cytometry.
For assay [2], the target named is T1, human CD4 on HPB-ALL cells. The experiment in a line: flow cytometry. The source holds these as a separate data set. On the technique in general: A flow cytometer gives signals particle by particle.

Read-outs that look alike come from different tables or passages of the source.

B1: deferoxamine conjugated humanized IAB41-1 minibody (other)
chain: EIVLTQSPATLSLSPGERATLSCSARSSVSYLYWYQQKPGQAPRLLIYDTSNLASGIPDRFSGSGSGTDFTLTISRLEPEDAAVYYCQQWSDYPLTFGGGTKLEIKGSTSGGGSGGGSGGGGSSQVQLVQSGAEVKKPGASVKVSCKASGYSFANYWMHWVRQAPGQRLEWIGALYPGNVDTTYNQKFQGRVTITRDTSASTAYMELSSLRSEDTAVYYCTRMGTTLEAPLDYWGQGTLVTVSSEPKSSDKTHTCPPCPPCGGGSSGGGSGGQPREPQVYTLPPSREEMTKNQVSLTCLVKGFYPSDIAVEWESNGQPENNYKTTPPVLDSDGSFFLYSKLTVDKSRWQQGNVFSCSVMHEALHNHYTQKSLSLSPG
modifications: deferoxamine (Df) chelator conjugated; sites of conjugation not stated
By EC50 is commonly meant the concentration needed to bring the measured effect to its halfway point. Molecule B1 yielded an EC50 in assay [1] of 3.05 nM.

B2: humanized IAB41-1 minibody (other)
chain: B1 chain
In assay [2], B2 yielded an EC50 of 1.77 nM.
